Results published in US11673947B2, “Target tissue-specific antigen-binding molecule” (Chugai Seiyaku Kabushiki Kaisha, priority 2012, dated 2023).
Where a chain is given by its changes, count along the chain named.

How the values were obtained:
human IL6 = human IL6 (Homo sapiens, UniProt P05231); assay: Phage ELISA, binding to human IL6 in the presence or absence of adenosine and/or ATP; conditions: with or without 10 mM adenosine and ATP
Procedure: (§1) Phage-containing culture supernatants were collected according to a conventional method (Methods Mol. Biol. (2002) 178, 133-145) from single colonies of E. coli obtained by the method described above. The collected culture supernatants were treated by ultrafiltration using NucleoFast 96 (MACHERY-NAGEL). 100 μl of the culture supernatants were added to each well of NucleoFast 96, and it was centrifuged (4500 g for 45 minutes) to remove flow through. After addition of 100 μl of H2O, the NucleoFast 96 was washed by centrifugation (4500 g for 30 minutes). Finally, 100 μl of TBS was added, and the NucleoFast 96 was allowed to stand for five minutes at room temperature. A phage suspension was collected from the supernatant in each well of the NucleoFast 96.
(§2) The purified phages, to which TBS or (adenosine+ATP)/TBS was added, were subjected to ELISA by the following procedure. A StreptaWell 96 microtiter plate (Roche) was coated overnight with 100 μl of TBS containing biotin-labeled antigen. […] Then, the developed color was assessed by measuring absorbance at 450 nm. […]
(§3) First, a StreptaWell 96 microtiter plate (Roche) was coated at room temperature for one hour or more with 100 μl of TBS containing a biotin-labeled antigen. […] Then, the developed color was assessed by measuring absorbance at 450 nm (FIGS. 25, 26, and 27). […]

[1] = target: HSA (human serum albumin) (Homo sapiens, UniProt P02768); assay: Phage ELISA, binding to HSA in the presence or absence of adenosine and/or ATP; conditions: with or without 10 mM adenosine and ATP
Procedure: as §1, §2, §3

human IgA-Fc = human IgA-Fc (Homo sapiens, UniProt P01876); assay: Phage ELISA, binding to human IgA-Fc in the presence or absence of adenosine and ATP (monovalent / multivalent display)
Sequence of human IgA-Fc (P01876 with tags, fused parts or gaps isoform P01876-1): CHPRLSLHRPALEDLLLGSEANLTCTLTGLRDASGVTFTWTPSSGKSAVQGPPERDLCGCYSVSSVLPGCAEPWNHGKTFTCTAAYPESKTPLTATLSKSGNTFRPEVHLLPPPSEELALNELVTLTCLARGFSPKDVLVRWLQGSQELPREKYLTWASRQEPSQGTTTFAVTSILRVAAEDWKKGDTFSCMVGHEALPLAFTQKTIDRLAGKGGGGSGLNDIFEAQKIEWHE
Procedure: Culture supernatants containing phages were collected according to a conventional method (Methods Mol. Biol. (2002) 178, 133-145) from single colonies of E. coli obtained by the method described above. The collected culture supernatants were ultrafiltrated using NucleoFast 96 (MACHERY-NAGEL). 100 μl of the culture supernatants were added to each well of NucleoFast 96 and centrifuged (4500 g for 45 minutes) to remove flow-through. After 100 μl of H2O was added, the NucleoFast 96 was washed by centrifugation (4500 g for 30 minutes). Finally, 100 μl of TBS was added, and the NucleoFast 96 was allowed to stand for five minutes at room temperature. A phage solution contained in the supernatant in each well was collected.
Purified phages, to which TBS or (adenosine+ATP)/TBS was added, were subjected to ELISA by the following procedure. A StreptaWell 96 microtiter plate (Roche) was coated overnight with 100 μl of TBS containing a biotin-labeled antigen. After the antigen was removed from each well of the plate by washing with TBST, the wells were blocked with 250 μl of 2% skim milk/TBS for one hour or more. 2% skim milk/TBS was removed, and then the prepared, purified phages were added to each well. […] Then, the developed color was assessed by measuring absorbance at 450 nm.

Sequence of human IL6 (P05231 30-212): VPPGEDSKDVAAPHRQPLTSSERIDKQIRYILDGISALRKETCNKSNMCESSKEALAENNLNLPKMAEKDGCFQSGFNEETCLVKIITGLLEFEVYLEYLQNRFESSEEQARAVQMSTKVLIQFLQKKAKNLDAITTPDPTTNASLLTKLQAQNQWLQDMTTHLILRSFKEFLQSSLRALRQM

B1: I6RLSA1-6_011: clone with antigen-binding activity to human IL-6 in the absence of ATP and adenosine (antibody, V domains shown)
VH: EVQLVESGGDLVKPGGGLRLSCAASGFTFSGYTMHWVRQAPGKGLEWVSSISSRSSHISYADSVKGRFTISRDNAKNSLYLQMNSLRAEDTAVYYCARFGRKYRMNWVFDYWGQGTLVTVSS
VL: QSALTQPPSASGSPGQTVTISCTGTSTDVGFYNYVSWYQQHPGKAPKLMIYDTSKRPSGVPDRFSGSKSGNTASLTVSGLQAEDEADYFCSTVTGIWSVGFGGGTKLTVL
antigen-binding activity to human IL-6 in the absence of ATP and adenosine (human IL6): had an antigen-binding activity

B2: HSADSA1-6_020: clone with antigen-binding activity to HSA in the absence of ATP and adenosine (antibody, V domains shown)
VH: B1 VH with G31S, Y32H, H35N, S56N, I58A, S59T, R101K, Y103G, M105Y, N106L
VL: QSALTQPPSASGSPGQTVTISCTGTSSDVGDYNYVSWYQQHPGKAPKLMIYYVSKRPSGVPDRFSGSKSGNTASLTVSGLQAEDEADYFCSLTTDSLNPVFGGGTKLTVL
antigen-binding activity to human serum albumin (HSA) in the absence of ATP and adenosine [1]: had antigen-binding activity

B3: IADL3C5-4_048: clone binding human IgA-Fc in the presence of adenosine and ATP; SEQ ID NOs: 100 and 101 (antibody, listed as Homo sapiens, V domains shown)
VH: B1 VH with Y32H, H35N, S56N, S59Y, F99Y, Y103F, R104M
VL: B1 VL with D52Q, T53N, T92L, V93R, T94S, G95S, I96N, W97L, V99P
antigen-binding activity in the presence of adenosine and ATP (human IgA-Fc): exhibits antigen-binding activity
